Laboratory results published in patent US10047131B2, “Peptides and combination of peptides for use in immunotherapy against ovarian cancer and other cancers” (immatics biotechnologies GmbH, priority 2015, dated 2018).

What follows are substances tested against HLA-A*02:01 (Homo sapiens, UniProt P04439, D140Y/D185E/D98H/E176V/E277Q/G131W/G231S/I119V/I121R/I166T/I218V/L300P/L318F/N151K/N90K/P208A/P217A/Q86G/Q94H/R138H/R169H/T345S) (assay: MHC binding assay (UV-ligand exchange, ELISA of exchange yield)). Details: binding to HLA-A*02:01, UV-ligand exchange.
Procedure, shortened: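 Peptide–MHC complexes made by UV-ligand exchange, where a UV-cleavable peptide is replaced by the test peptide. Exchange yield measured by ELISA: complexes diluted 100-fold on streptavidin-coated plates, stabilized complexes detected with HRP anti-β2m, TMB read at 450 nm.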
For “83 (ILAPTVMMI; listed as Homo sapiens) [compound 83]”, the “Peptide exchange (MHC class I binding score, peptide exchange yield)” value (“Peptide exchange” below) was ““+++” (≥50 = +++)”.
In the case of “351 (SLIPNLRNV; listed as Homo sapiens) [compound 351]”, the “Peptide exchange” value is reported as ““+++” (≥50 = +++)”.
In the case of “311 (RLYTGMHTV; listed as Homo sapiens) [compound 311]”, the “Peptide exchange” value is reported as ““+++” (≥50 = +++)”.
For “67 (TLLAEALVTV; listed as Homo sapiens) [compound 67]”, the “Peptide exchange” value was ““+++” (≥50 = +++)”.
In the case of “394 (LLAVIGGLVYL; listed as Homo sapiens) [compound 394]”, the “Peptide exchange” value is reported as ““+++” (≥50 = +++)”.
In the case of “495 (FIFSEKPVFV; listed as Homo sapiens) [compound 495]”, the “Peptide exchange” value is reported as ““+++” (≥50 = +++)”.
“238 (YLISFQTHI; listed as Homo sapiens) [compound 238]” was tested, and the “Peptide exchange” value was ““+++” (≥50 = +++)”.
For “6 (VLVSDGVHSV; listed as Homo sapiens) [compound 6]”, the “Peptide exchange” value was ““+++” (≥50 = +++)”.
In the case of “378 (ALGYFVPYV; listed as Homo sapiens) [compound 378]”, the “Peptide exchange” value is reported as ““+++” (≥50 = +++)”.
With “154 (ALDDGTPAL; listed as Homo sapiens) [compound 154]” the “Peptide exchange” value was ““++” (≥20% = ++)”.
For “340 (ALLSMTFPL; listed as Homo sapiens) [compound 340]”, the “Peptide exchange” value was ““++++” (≥75% = ++++)”.
“219 (KLSDIGITV; listed as Homo sapiens) [compound 219]” was tested, and the “Peptide exchange” value was ““+++” (≥50 = +++)”.
For “4 (GIMEHITKI; listed as Homo sapiens) [compound 4]”, the “Peptide exchange” value was ““++++” (≥75% = ++++)”.
“232 (ALLEAQDVELYL; listed as Homo sapiens) [compound 232]” was tested, and the “Peptide exchange” value was ““++” (≥20% = ++)”.
“196 (YLYSVEIKL; listed as Homo sapiens) [compound 196]” was tested, and the “Peptide exchange” value was ““++++” (≥75% = ++++)”.
In the case of “350 (ALLDVTHSELTV; listed as Homo sapiens) [compound 350]”, the “Peptide exchange” value is reported as ““+++” (≥50 = +++)”.
“337 (HLLSELEAAPYL; listed as Homo sapiens) [compound 337]” was tested, and the “Peptide exchange” value was ““++++” (≥75% = ++++)”.
For “182 (MLLEAPGIFL; listed as Homo sapiens) [compound 182]”, the “Peptide exchange” value was ““+++” (≥50 = +++)”.
In the case of “178 (ALTEIAFVV; listed as Homo sapiens) [compound 178]”, the “Peptide exchange” value is reported as ““++++” (≥75% = ++++)”.
With “221 (ALYEEGLLL; listed as Homo sapiens) [compound 221]” the “Peptide exchange” value was ““++” (≥20% = ++)”.
In the case of “523 (YQIPRTFTL; listed as Homo sapiens) [compound 523]”, the “Peptide exchange” value is reported as ““++” (≥20% = ++)”.
“575 (YLISQVEGHQV; listed as Homo sapiens) [compound 575]” was tested, and the “Peptide exchange” value was ““+++” (≥50 = +++)”.
“127 (KIGDEPPKV; listed as Homo sapiens) [compound 127]” was tested, and the “Peptide exchange” value was ““++” (≥20% = ++)”.
For “234 (ALMEDTGRQML; listed as Homo sapiens) [compound 234]”, the “Peptide exchange” value was ““++” (≥20% = ++)”.
With “12 (SLWPDPMEV; listed as Homo sapiens) [compound 12]” the “Peptide exchange” value was ““+++” (≥50 = +++)”.
With “243 (LLLNELPSV; listed as Homo sapiens) [compound 243]” the “Peptide exchange” value was ““+++” (≥50 = +++)”.
“288 (NLINEINGV; listed as Homo sapiens) [compound 288]” was tested, and the “Peptide exchange” value was ““+++” (≥50 = +++)”.
With “339 (GLWEIENNPTVKA; listed as Homo sapiens) [compound 339]” the “Peptide exchange” value was ““++++” (≥75% = ++++)”.
